The values below come from patent US20220306757A1 (HANGZHOU SUMGEN BIOTECH, published 2022).

In experiment [1] the target is T1, BCMA on CHOS cells stably expressing BCMA (CHOS-BCMA) (UniProt Q02223 1-184).
T1 construct: whole, on cells; also called CHOS-BCMA cells
T1 sequence (looked up): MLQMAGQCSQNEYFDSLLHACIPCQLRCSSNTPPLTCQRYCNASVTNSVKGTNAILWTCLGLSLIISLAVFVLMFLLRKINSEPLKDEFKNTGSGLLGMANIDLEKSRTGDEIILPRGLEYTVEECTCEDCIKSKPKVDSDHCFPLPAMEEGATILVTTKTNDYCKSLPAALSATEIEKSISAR
Put plainly: flow cytometry on CHOS-BCMA cells, PE anti-human IgG detection. On the procedure: (§1) With human myeloma U266 cells as well as CHOS cells (CHOS-BCMA) stably expressing BCMA constructed by genetic engineering technology as representative cell models, the binding of BCMA on the cell surface to SG1116 was analyzed by flow cytometry. Cells at the logarithmic growth phase were collected, adjusted to a cell density of 5×10⁶ cells/mL, and precooled on ice. The SG1116 antibody was diluted with pre-cooled normal saline containing 2% FBS to 20 μg/ml. 100 μl of cells were taken and added into an equal volume of the above diluted SG1116 antibody, and reacted in dark at 4° C. for 30 min. At the end of the reaction, they were washed twice with pre-cooled normal saline containing 2% FBS (6000 rpm, 45 s). A secondary antibody PE mouse anti-human IgG (BD Pharmingen) was diluted with pre-cooled normal saline containing 2% FBS at a ratio of 1:5. 100 μl of cells were taken and resuspended, and reacted in dark at 4° C. for 30 min. At the end of the reaction, they were washed twice with pre-cooled normal saline containing 2% FBS (6000 rpm, 45 s). The cells were resuspended with 400 μl of 1% (v/v) paraformaldehyde. The binding ability of the antibody to the antigen on the cell surface was analyzed with a flow cytometer (BD Calibur).
Background: A flow cytometer gives signals particle by particle.

A further experiment deals with T2, Gas6 (R&D) (UniProt Q14393 49-678, limits assumed).
T2 construct: Specificity control
T2 sequence (looked up): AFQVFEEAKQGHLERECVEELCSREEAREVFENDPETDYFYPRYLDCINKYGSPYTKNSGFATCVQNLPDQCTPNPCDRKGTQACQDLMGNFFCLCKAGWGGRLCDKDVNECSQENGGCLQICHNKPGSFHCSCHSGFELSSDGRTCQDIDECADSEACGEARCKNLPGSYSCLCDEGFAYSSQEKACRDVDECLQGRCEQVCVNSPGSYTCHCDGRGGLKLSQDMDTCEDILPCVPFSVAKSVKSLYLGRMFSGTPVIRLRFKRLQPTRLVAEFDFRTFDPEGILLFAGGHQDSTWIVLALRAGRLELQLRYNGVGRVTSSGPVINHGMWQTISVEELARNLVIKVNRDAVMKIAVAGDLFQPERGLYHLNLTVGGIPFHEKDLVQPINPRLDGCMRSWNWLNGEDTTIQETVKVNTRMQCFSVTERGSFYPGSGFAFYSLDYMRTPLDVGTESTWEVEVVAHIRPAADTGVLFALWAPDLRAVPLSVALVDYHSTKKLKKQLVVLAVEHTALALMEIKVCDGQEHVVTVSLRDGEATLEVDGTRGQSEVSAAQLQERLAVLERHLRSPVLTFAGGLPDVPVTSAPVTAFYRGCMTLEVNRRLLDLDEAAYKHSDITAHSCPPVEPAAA
Put plainly: ELISA, proteins coated at 1 ug/ml, HRP goat anti-human IgG, OD450. On the procedure:
(§2) ELISA strips were coated with milk (Beijing Biomed Biotech Co., Ltd.), BSA (BOVOGEN), CD19 (Sino Biological Inc.), TROP2 (Sino Biological Inc.), BCMA (ACRO Biosystems), CD47 (Sino Biological Inc.), CD38 (Sino Biological Inc.), Gas6 (R&D) and various proteins as well as AXL (ACRO Biosystems), respectively, at 1 μg/ml, overnight at 4° C. After washing with PBST, 10% of fetal calf serum was added for blocking at 37° C. for 1 hour. The antibody SG1116 was added to react at 37° C. for 1 hour. After washing with PBST, horseradish peroxidase-labeled goat anti-human IgG secondary antibody (Goat anti human (HRP), Thermo Fisher Scientific) was added to react at room temperature for 30 minutes. The plate was washed with PBST repeatedly for 5 times, and patted on absorbent paper so as to dry the remaining droplets as much as possible. Each well was added with 100 μl TMB (eBioscience, #85-00-420), placed in dark at room temperature ([…]) for 1.5 min. Each well was added with 100 μl of 2N H₂SO₄ stop solution to terminate the reaction of the substrate. The OD values at 450 nm were read with a Microplate reader. The binding ability of the antibody to protein was analyzed.

The target of experiment [2] is T3, TROP2 (Sino Biological Inc.) (UniProt P09758 27-274).
T3 construct: Specificity control
T3 sequence (looked up): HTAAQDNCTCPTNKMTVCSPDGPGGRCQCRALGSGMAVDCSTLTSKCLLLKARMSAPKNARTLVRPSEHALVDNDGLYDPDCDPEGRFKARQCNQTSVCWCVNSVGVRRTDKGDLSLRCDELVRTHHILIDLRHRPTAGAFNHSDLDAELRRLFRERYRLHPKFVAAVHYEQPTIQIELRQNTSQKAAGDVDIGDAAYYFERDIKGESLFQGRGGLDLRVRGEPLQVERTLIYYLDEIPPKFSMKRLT
The experiment is described as above. On the procedure:
as §2

The target of the next experiment is T4, AXL (ACRO Biosystems) (UniProt P30530 33-449, limits assumed).
T4 construct: Specificity control
T4 sequence (looked up): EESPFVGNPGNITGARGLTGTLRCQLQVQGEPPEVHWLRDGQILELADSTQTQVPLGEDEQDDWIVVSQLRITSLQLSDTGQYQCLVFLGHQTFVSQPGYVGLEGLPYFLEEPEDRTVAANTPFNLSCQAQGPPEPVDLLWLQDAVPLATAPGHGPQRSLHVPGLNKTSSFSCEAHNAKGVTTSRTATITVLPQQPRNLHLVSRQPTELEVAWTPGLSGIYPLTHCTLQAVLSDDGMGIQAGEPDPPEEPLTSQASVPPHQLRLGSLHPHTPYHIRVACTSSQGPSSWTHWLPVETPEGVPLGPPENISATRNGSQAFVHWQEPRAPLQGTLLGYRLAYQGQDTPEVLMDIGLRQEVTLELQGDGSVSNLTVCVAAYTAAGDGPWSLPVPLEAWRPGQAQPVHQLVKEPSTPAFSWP
The description is as above. On the procedure:
as §2

The target in a further experiment is T5, BSA (BOVOGEN) (UniProt P02769 25-607).
T5 construct: Specificity control
T5 sequence (P02769 25-607 limits assumed): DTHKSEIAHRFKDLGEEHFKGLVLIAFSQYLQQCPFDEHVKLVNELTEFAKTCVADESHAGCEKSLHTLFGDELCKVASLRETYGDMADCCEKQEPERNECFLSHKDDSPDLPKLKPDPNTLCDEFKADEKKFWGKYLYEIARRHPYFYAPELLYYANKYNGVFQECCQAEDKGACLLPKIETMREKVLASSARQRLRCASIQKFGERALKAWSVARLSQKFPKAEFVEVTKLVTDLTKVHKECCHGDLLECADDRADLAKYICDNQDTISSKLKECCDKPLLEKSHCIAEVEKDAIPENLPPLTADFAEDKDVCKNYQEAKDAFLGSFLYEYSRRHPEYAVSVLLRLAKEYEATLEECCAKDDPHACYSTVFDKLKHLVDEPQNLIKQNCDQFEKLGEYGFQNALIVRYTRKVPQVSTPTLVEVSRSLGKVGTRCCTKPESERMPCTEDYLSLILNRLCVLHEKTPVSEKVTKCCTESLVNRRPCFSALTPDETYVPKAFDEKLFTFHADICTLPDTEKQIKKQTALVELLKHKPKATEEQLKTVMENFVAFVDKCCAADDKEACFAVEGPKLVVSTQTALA
Described as above. On the procedure: as §2

Experiment [3] concerns the target T6, CD47 (Sino Biological Inc.) (UniProt Q08722 19-139).
T6 construct: Specificity control
Described as above. As for the experimental part:
as §2

The target in experiment [4] is T7, CD19 (Sino Biological Inc.) (UniProt P15391 20-291).
T7 construct: Specificity control
T7 sequence (looked up): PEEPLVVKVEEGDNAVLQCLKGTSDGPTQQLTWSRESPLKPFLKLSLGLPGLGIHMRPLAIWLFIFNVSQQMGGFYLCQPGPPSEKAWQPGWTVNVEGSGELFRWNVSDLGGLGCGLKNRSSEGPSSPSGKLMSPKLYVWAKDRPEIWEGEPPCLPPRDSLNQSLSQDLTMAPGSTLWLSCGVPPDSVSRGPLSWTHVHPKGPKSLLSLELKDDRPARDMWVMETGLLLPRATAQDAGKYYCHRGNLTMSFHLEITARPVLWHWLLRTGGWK
Described as above. On the procedure: as §2

Experiment [5] has as its target T8, CD38 (Sino Biological Inc.) (UniProt P28907 43-300).
T8 construct: Specificity control
T8 sequence (looked up): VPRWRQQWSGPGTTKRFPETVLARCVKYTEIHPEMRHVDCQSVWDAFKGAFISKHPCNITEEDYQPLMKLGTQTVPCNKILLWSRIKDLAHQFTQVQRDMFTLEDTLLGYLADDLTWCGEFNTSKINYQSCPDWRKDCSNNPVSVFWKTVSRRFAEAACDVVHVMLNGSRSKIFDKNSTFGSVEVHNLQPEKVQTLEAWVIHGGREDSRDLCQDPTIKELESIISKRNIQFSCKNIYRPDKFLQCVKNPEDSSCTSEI
The description is as above. As for the experimental part:
as §2

The target of experiment [6] is T9, recombinant BCMA-His (ACRO Biosystems) (UniProt Q02223 1-54).
T9 construct: also called target antigen BCMA; antigen BCMA; not shown: His tag
T9 sequence (looked up): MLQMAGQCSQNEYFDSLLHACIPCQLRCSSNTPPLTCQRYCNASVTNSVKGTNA
Description: ELISA, BCMA-His coated at 1 µg/ml, anti-human IgG HRP detection. As for the experimental part: ELISA strips were coated with the target antigen BCMA-His at 1 μg/ml, overnight at 4° C. After washing with PBST, 10% of fetal calf serum was added for blocking at 37° C. for 1 hour. Different concentrations of the antibody SG1116 was added to react at 37° C. for 1 hour. After washing with PBST, horseradish peroxidase-labeled goat anti-human IgG secondary antibody (Goat anti human ([…]), thermo Fisher Scientific) was added to react at 37° C. for 30 minutes. The plate was washed with PBST repeatedly for 5 times, and patted on absorbent paper so as to dry the remaining droplets as much as possible. Each well was added with […] TMB (eBioscience), placed in dark at room temperature (20±5° C.) for 1.5 min. Each well was added with 100 μl of 2N H₂SO₄ stop solution to terminate the reaction of the substrate. The OD values at 450 nm were read with a Microplate reader. The binding ability of the antibody to the target antigen BCMA was analyzed.
For orientation: An ELISA detects its analyte on a solid surface through an enzyme-linked reagent.

For experiment [7], the target named is T10, BCMA on the surface of human myeloma U266 cells (human, UniProt Q02223 1-184).
T10 construct: whole, on cells; Endogenous BCMA of a human cell line; also called BCMA molecules on the surface of human myeloma U266 cells
T10 sequence (looked up): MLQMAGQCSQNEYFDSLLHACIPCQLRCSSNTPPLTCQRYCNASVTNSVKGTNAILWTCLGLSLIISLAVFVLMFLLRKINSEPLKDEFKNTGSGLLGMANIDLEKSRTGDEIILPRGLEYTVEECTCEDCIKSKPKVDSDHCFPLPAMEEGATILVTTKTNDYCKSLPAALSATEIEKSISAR
Description: flow cytometry on U266 cells, PE anti-human IgG detection. As for the experimental part:
as §1

Experiment [8] concerns the target T9, recombinant BCMA-His (ACRO Biosystems). Put plainly: SPR (BIACORE), antibody captured by anti-human IgG, BCMA as mobile phase 0.15625-20 nM. As for the experimental part:
The antibody affinity was analyzed with BIACORE biomacromolecular interaction analyzer (GE Co.). Anti-human IgG antibodies (purchased from GE) were coupled on a chip, and utilized to capture the SG1116 antibody, of which the concentration was set as 3 μg/mL, and the sampling time was 120 seconds; with the antigen BCMA as the mobile phase, a gradient of 8 concentrations (0.15625, 0.3125, 0.625, 1.25, 2.5, 5, 10, 20 nM) was used, and the binding time was 120 seconds; the dissociation time was 300 seconds; each antibody was regenerated using 3 M of magnesium chloride (purchased from GE) for a time period of 30 seconds.
In general terms: In SPR one partner is held on a chip, and binding of the other changes the refractive index at the surface.

In experiment [9] the target is T10, BCMA on the surface of human myeloma …. Description: cell-based or functional assay.
The target in experiment [10] is T1, BCMA on CHOS cells stably expressing …. Description: cell-based or functional assay.

T6 sequence (Q08722 19-139 limits assumed): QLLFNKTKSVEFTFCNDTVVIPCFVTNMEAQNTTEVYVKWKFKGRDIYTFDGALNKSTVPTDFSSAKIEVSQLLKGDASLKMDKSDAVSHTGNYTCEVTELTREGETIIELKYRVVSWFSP

B1: SG1116 antibody (antibody, human IgG1, V domains shown)
VH: QVQLVQSGPELKKPGETVKISCKASGYTFSRYSMNWVRQAPGKGLEWMGRINTGSGAPIYADDFKGRFTFSVDTSASTAYLVINNLKSEDTASYFCSNDYNYSLDHWGQGTAVTVSS
VL: DIVLTQSPPSLAMSLGKRATISCRASESVTILGSHLIYWYQQKPGQPPTLLIQLASNVQTGVPARFSGSGSRTDFTLTIDPVEEDDVAVYYCLQSRTIPRTFGGGTKLEIK
notes: also called antibody SG1116; SGT116
What is called EC50 is the concentration giving half of the maximal effect. The term Kd denotes a measure of binding affinity in units of concentration. Usually koff stands for the rate constant with which the complex falls apart. What is called kon is a measure of how fast the partners come together. In the case of B1, the results for the concentration giving a half-maximal response (EC50) in [1], in experiment [6] and in [7] were 0.622 µg/mL, 0.0565 µg/mL and 4.29 µg/mL, respectively. Also, the binding result (with Gas6 (R&D); in [2]; with AXL (ACRO Biosystems); with BSA (BOVOGEN); in experiment [3]; in experiment [4]) was “no binding” each time. Moreover, the binding result in [5] was “no binding”. Moreover, in experiment [8], the Kd was determined as 1.39 nM. The koff in experiment [8] was determined as 0.0171 s⁻¹. Moreover, the kon in [8] came to 1.23e+07 M⁻¹ s⁻¹. Further, the “internalization efficiency EC50 (flow cytometry, surface MFI at 4°C against 37°C)” value in experiment [9] came out at 0.178 µg/mL; in experiment [10], 0.00327 µg/mL.

B2: immunoconjugate SG1116-DM1 (antibody, V domains shown)
VH: QVQLVQSGPELKKPGETVKISCKASGYTFSRYSMNWVRQAPGKGLEWMGRINTGSGAPIYADDFKGRFTFSVDTSASTAYLVINNLKSEDTASYFCSNDYNYSLDHWGQGTAVTVSS
VL: DIVLTQSPPSLAMSLGKRATISCRASESVTILGSHLIYWYQQKPGQPPTLLIQLASNVQTGVPARFSGSGSRTDFTLTIDPVEEDDVAVYYCLQSRTIPRTFGGGTKLEIK
modifications: maytansine derivative DM1 linked through SMCC; conjugation residues and chain not stated
B2: in [9], the “IC50 of inhibition of proliferation (CCK-8, 72 hours)” value was found to be 0.347 nM.
